# Reference: paper PMC6366424, “Development of a novel, high-affinity ssDNA trypsin inhibitor”
# How the values were obtained:
# Details in all cases: protein: commercial
# bovine trypsin [1] = molecular target: T1, bovine trypsin (Bos taurus (bovine), UniProt P00760 24-246); assay: enzyme inhibition (mixed mode); BAPNA, TAAB, 37 C; ELISA/pull-down: PBS pH 7.4, 5 mM MgCl2, 10 mM KCl, 0.01% Tween20, RT; SPR and inhibition (TAAB): 0.1 M Tris pH 7.5, 150 mM NaCl, 5 mM CaCl2, 10 mM KCl, 5 mM MgCl2, 0.02% Tween 20; inhibition at 37 C (full-length aptamer screen in selection buffer at RT)
# T1 sequence (P00760 24-246): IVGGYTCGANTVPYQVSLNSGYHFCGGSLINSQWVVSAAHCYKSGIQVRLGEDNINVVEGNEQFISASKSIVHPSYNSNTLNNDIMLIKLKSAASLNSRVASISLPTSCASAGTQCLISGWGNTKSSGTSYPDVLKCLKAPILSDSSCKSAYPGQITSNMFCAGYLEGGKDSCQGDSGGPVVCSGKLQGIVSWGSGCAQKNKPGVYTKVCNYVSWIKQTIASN
# bovine trypsin [2] = molecular target: T1, bovine trypsin; assay: bead pull-down; ELISA/pull-down: PBS pH 7.4, 5 mM MgCl2, 10 mM KCl, 0.01% Tween20, RT; SPR and inhibition (TAAB): 0.1 M Tris pH 7.5, 150 mM NaCl, 5 mM CaCl2, 10 mM KCl, 5 mM MgCl2, 0.02% Tween 20; inhibition at 37 C (full-length aptamer screen in selection buffer at RT)
# bovine trypsin [3] = molecular target: T1, bovine trypsin; assay: SPR; kon 1.03e6 M-1s-1, koff 3.15e-3 s-1; TAAB; ELISA/pull-down: PBS pH 7.4, 5 mM MgCl2, 10 mM KCl, 0.01% Tween20, RT; SPR and inhibition (TAAB): 0.1 M Tris pH 7.5, 150 mM NaCl, 5 mM CaCl2, 10 mM KCl, 5 mM MgCl2, 0.02% Tween 20; inhibition at 37 C (full-length aptamer screen in selection buffer at RT)
Binder,Ki (bovine trypsin [1]) [nM],binding result (bovine trypsin [2]),Kd (bovine trypsin [3]) [nM]
T59 (ssDNA) DNA: CATGCTTCCCCAGGGAGATGGGTGTGAGGTTAGTTTGCGGTCCTGGCAAAGGGGGGCCTGGAGGAACATG,475 ± 48,–,–
T21 (ssDNA) DNA: CATGCTTCCCCAGGGAGATGGGTGTGGGGTTAGGTCACTTTATGGTTGGTTCCATTGTGTCAGGGAGCCGGGAGGAACATGCGTCGCAAAC,–,binds,–
T22 (ssDNA) DNA: CATGCTTCCCCAGGGAGATGGGTGTGAGGTTAGGAAATCTGTGTTGAACACTGCTTTCAGGGGGCTTGGGAGGAACATGCGTCGCAAAC,–,binds,–
T24 (ssDNA) DNA: CATGCTTCCCCAGGGAGATGGGTGTGAGGTTAGTTTGCGGGAACTAGAATTCCTGGCAAAGGGGGGCCTGGAGGAACATGCGTCGCAAAC,176 ± 16,–,3.06
